The values that follow come from patent US20260116951A1 (DUCENTIS BIOTHERAPEUTICS, published 2026).

Assay [1] has as its target T1, Recombinant Human CD200R, His-tagged (Creative Biomart CD200R1-320H) (human, UniProt Q8TD46 27-266).
T1 construct: Bought; also called human CD200 receptor; not shown: His tag
T1 sequence (looked up): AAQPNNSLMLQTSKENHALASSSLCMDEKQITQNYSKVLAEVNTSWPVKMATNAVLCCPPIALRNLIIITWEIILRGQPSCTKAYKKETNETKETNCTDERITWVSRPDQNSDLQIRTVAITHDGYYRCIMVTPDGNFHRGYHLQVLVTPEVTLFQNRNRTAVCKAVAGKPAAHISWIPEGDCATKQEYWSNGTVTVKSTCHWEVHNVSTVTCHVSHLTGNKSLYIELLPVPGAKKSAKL
As to the kind of experiment: SPR (BIAcore). As for the experimental part: For human CD200 constructs: anti-human Fc (GE Healthcare) was covalently immobilized on a BIAcore CM5 sensor chip (Cytiva, BR100530) by amine coupling using a Cytiva kit (BR100839) following the manufacturer's instructions, targeting immobilization of 8,000-11,000 RU. CD200-Fc proteins were diluted to 0.5 μg/mL to 4 μg/mL in running Buffer (1×HBS-EP+pH7.4 (Cytiva BR100669), HEPES Buffered Saline pH 7.4 containing 3 mM EDTA and 0.05% v/v Surfactant P20) and flowed for 25 to 100 seconds at 10 μL/min over the immobilized Anti-Human IgG Fc, with a stabilization time of 60 seconds. Between 35 and 250 RUs of CD200-Fc were captured, with higher RUs used for cynomolgus CD200R binding experiments. […] Analysis temperature was 25° C. […]
(§1) For mouse CD200 constructs, muCD200R-Fc (Creative Biomart CD200R1-458M) diluted to 1 μg/mL in running buffer was flowed over the immobilized Anti-Human IgG Fc, with CD200 monomers serially diluted and flowed over captured CD200R. […] Data analysis: experimental sensorgrams were analyzed in BIAevaluation software (GE Healthcare). […] Closeness of fit was determined by algorithms provided by the manufacturer in the BIAevaluation software, and data accepted if the Chi² value was less than 10% of Rₘₐₓ, and the U value was less than or equal to 15.
(SPR reads the build-up and loss of mass on a sensor chip optically.)

Assay [2] addresses T1, Recombinant Human CD200R, His-tagged …. As to the kind of experiment: SPR, CD200R flowed over immobilized CD200-Fc, 25 C, 1:1 fit. On the procedure:
(§2) For human CD200 constructs: anti-human Fc (GE Healthcare) was covalently immobilized on a BIAcore CM5 sensor chip (Cytiva, BR100530) by amine coupling using a Cytiva kit (BR100839) following the manufacturer's instructions, targeting immobilization of 8,000-11,000 RU. CD200-Fc proteins were diluted to 0.5 μg/mL to 4 μg/mL in running Buffer (1×HBS-EP+pH7.4 (Cytiva BR100669), HEPES Buffered Saline pH 7.4 containing 3 mM EDTA and 0.05% v/v Surfactant P20) and flowed for 25 to 100 seconds at 10 μL/min over the immobilized Anti-Human IgG Fc, with a stabilization time of 60 seconds. Between 35 and 250 RUs of CD200-Fc were captured, with higher RUs used for cynomolgus CD200R binding experiments. […] Analysis temperature was 25° C. This was followed by regeneration of the surface with 30-90 second pulse of 3M MgCl₂ flowed at […] flow rate followed by stabilization of the surface with 60 second flow of running buffer.
(§3) Curves obtained were fitted to 1:1 Langmuir binding model by setting Rmax and RI as local parameters. Rate equations using standard parameters (e.g. ligand concentration, time) were used for iterative curve fitting. […] Means of 2 experiments carried out on the same day are shown with standard deviation. Residue numbering for CD200 proteins refers to the pre-protein, containing a signal peptide which is cleaved during insertion into the endoplasmic reticulum.

Assay [3] has the same target. As to the kind of experiment: SPR.
Excerpt: as §3

Assay [4] has the same target. Description: SPR, CD200R flowed over immobilized CD200-Fc, 25 C, 1:1 fit; reference is wild-type CD200-Fc DS-155. As for the experimental part:
as §2, §3

Assay [5] has the same target. As to the kind of experiment: SPR (BIAcore T200), CD200-Fc captured on anti-human Fc, CD200R flowed, 25 C, 1:1 fit. On the procedure: (§4) The experiments were performed on a GE Healthcare BIAcore T200. Human, cynomolgus and mouse CD200R proteins were purchased from Creative Biomart (CD200R1-320H, CD200R1-3483C, CD200R1-3280M). All measurements were performed in duplicate.
(§5) For human CD200 constructs: anti-human Fc (GE Healthcare) was covalently immobilized on a BIAcore CM5 sensor chip (Cytiva, BR100530) by amine coupling using a Cytiva kit (BR100839) following the manufacturer's instructions, targeting immobilization of 8,000-11,000 RU. CD200-Fc proteins were diluted to 0.5 μg/mL to 4 μg/mL in running Buffer (1×HBS-EP+pH7.4 (Cytiva BR100669), HEPES Buffered Saline pH 7.4 containing 3 mM EDTA and 0.05% v/v Surfactant P20) and flowed for 25 to 100 seconds at 10 μL/min over the immobilized Anti-Human IgG Fc, with a stabilization time of 60 seconds. […]
as §1

A further assay addresses T2, Cyno PBMCs.
T2 construct: No receptor was assigned; also called cynomolgus monkey PBMCs, gated on live cells
As to the kind of experiment: Flow cytometry, % binding on cynomolgus PBMCs gated on live cells, 1 hour at 37 C, anti-human secondary antibody; the target protein on the cells is not named. On the procedure:
PBMC cells were re-suspended with a density of 0.1 million cells per assay point, with 50 μL FACS buffer (1×PBS+2% FBS). Dilutions of huCD200-Fc in 50 μL were added, starting at 10 μg/mL with 3-fold dilutions up to 10 concentrations with FACS buffer, and incubated for 1-hour at 37° C. At the end of each time point, cells were collected and washed (addition of 200 μL FACS buffer and centrifugation at 1400 RPM). 10 μg/mL of anti-human secondary antibody (Abcam Ab98596) was added together with excess Fc block (Innovex Biosciences no. NB309), and incubated for 30 minutes at 4° C. Cells were washed post incubation and stained to check viability (1 μL dye per million cells per mL 1×PBS, ThermoFisher C34557A) for 20 minutes at 4° C. Cells were washed and fixed with Fixation buffer (100 μL per test, BD Sciences 554655) at 4° C. for 20 minutes. Post incubation, cells were washed and the pellet was re-suspended in FACS buffer (100 μL per test) for data acquisition on the flow cytometer.
In general terms: A flow cytometer gives signals particle by particle.

Assay [6] addresses T3, Recombinant Cyno CD200R, His-tagged (Creative Biomart CD200R1-3483C) (cynomolgus monkey).
T3 construct: Bought; also called cynomolgus CD200R1; cynomolgus CD200R
Description: SPR (BIAcore T200), CD200-Fc captured on anti-human Fc, cyno CD200R flowed, 25 C, 1:1 fit, mean of two runs. As for the experimental part:
as §4, §2
(§6) For mouse CD200 constructs, muCD200R-Fc (Creative Biomart CD200R1-458M) diluted to 1 μg/mL in running buffer was flowed over the immobilized Anti-Human IgG Fc, with CD200 monomers serially diluted and flowed over captured CD200R. Other details were as above. Data analysis: experimental sensorgrams were analyzed in BIAevaluation software (GE Healthcare). The curves obtained were fitted to 1:1 Langmuir binding model by setting Rmax and RI as local parameters. Rate equations using standard parameters (e.g. ligand concentration, time) were used for iterative curve fitting. Closeness of fit was determined by algorithms provided by the manufacturer in the BIAevaluation software, and data accepted if the Chi² value was less than 10% of Rₘₐₓ, and the U value was less than or equal to 15.

In assay [7] the target is T1, Recombinant Human CD200R, His-tagged …. As to the kind of experiment: SPR (BIAcore), DS-118 captured (0.5 ug/mL), HuCD200R1 flowed at 100 nM to 6.25 nM, 25 C, 1:1 Binding model, run 2. On the procedure: as §2, §6
Assay [8] concerns the target T3, Recombinant Cyno CD200R, His-tagged …. Description: SPR (BIAcore T200), CD200-Fc captured on anti-human Fc, cyno CD200R flowed, 25 C, 1:1 fit. As for the experimental part:
as §4, §5, §1

Assay [9] shares this target. Description: SPR, cyno CD200R1 flowed over immobilized CD200-Fc, 25 C, 1:1 fit. On the procedure:
as §2, §3

B1: DS-118 (mutated human CD200-Fc fusion protein, K130Y, I131Y, IgG4 S228P Fc) (Fc fusion)
chain: QVQVVTQDEREQLYTPASLKCSLQNAQEALIVTWQKKKAVSPENMVTFSENHGVVIQPAYKDKINITQLGLQNSTITFWNITLEDEGCYMCLFNTFGFGYYSGTACLTVYVQPIVSLHYKFSEDHLNITCSATARPAPMVFWKVPRSGIENSTVTLSHPNGTTSVTSILHIKDPKNQVGKEVICQVLHLGTVTDFKQTVNKGPPCPPCPAPEFLGGPSVFLFPPKPKDTLMISRTPEVTCVVVDVSQEDPEVQFNWYVDGVEVHNAKTKPREEQFNSTYRVVSVLTVLHQDWLNGKEYKCKVSNKGLPSSIEKTISKAKGQPREPQVYTLPPSQEEMTKNQVSLTCLVKGFYPSDIAVEWESNGQPENNYKTTPPVLDSDGSFFLYSRLTVDKSRWQEGNVFSCSVMHEALHNHYTQKSLSLSLGK
notes: also called mutated CD200-Fc; mutant CD200-Fc
As a reminder, the t½ is the time in which the quantity being followed falls by half. As a reminder, the EC50 is the concentration that produces a half-maximal response. A word on the Kd: it is the constant that tells how readily two partners part at equilibrium. One may read the koff as the rate constant with which the complex falls apart. By kon is commonly meant the rate constant with which the complex forms. With B1, in assay [1], the “fold greater affinity than wild-type CD200-Fc (DS-155)” value was approximately 137 fold. In addition, the T1/2 in assay [2] is 37.9 min; in [9] it was 0.303 min. In addition, the “fold increase in affinity from wild type” value in assay [3] was more than 130 fold. Further, the “fold increase in affinity from wild type (DS-155)” value in assay [4] was more than 130 fold. Also, the values for the t½ in assay [5] and in assay [8] were 37.9 min and 0.303 min, respectively. In the assay with Cyno PBMCs, this molecule showed a concentration giving a half-maximal response (EC50) of 1.96 µg/mL. Moreover, the Kd in [6] was 206 nM; in assay [7], 1.42 nM. Also, the koff in assay [6] was 0.038 s⁻¹; in assay [7], 0.000329 s⁻¹. Besides, the kon in assay [6] was determined as 186000 M⁻¹ s⁻¹; in [7], 232000 M⁻¹ s⁻¹.
